In this assay the target is human APJ receptor (hAPJ) (human) (UniProt P35414). The assay can be described thus: cell-based or functional assay.
human APJ receptor (hAPJ) (human), sequence (P35414 whole entry): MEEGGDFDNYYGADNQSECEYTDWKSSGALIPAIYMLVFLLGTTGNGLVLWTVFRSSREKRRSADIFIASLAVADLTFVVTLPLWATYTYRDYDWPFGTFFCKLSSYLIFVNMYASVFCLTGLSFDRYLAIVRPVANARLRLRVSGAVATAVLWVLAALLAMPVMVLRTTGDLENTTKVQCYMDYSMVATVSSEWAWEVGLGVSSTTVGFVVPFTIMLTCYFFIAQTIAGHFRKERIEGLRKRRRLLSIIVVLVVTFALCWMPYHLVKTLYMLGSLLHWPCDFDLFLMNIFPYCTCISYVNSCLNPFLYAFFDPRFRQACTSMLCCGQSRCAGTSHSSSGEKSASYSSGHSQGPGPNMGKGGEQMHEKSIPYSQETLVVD

In the case of “Conjugate of AH-Fc with apelin cyclic peptide: AH-Fc-BCN clicked to NH2-AzidoLys-GGGGS-Q-R-P-C-L-S-C-K-G-P-Dnle-Phenethylamine (from UniProt P0DOX5 223-449) (Fc fusion)”, the hAPJ Ca^2+ Flux EC50 is 16.3 nM.

In turn, “Fc-Apelin conjugate using sortase: Fc-GGGGS-LPET-GGGGG-QRPC*LSC*KGP(D-Nle)Phenethylamine (Fc fusion)” returned a hAPJ Ca^2+ Flux EC50 of 28.9 nM.

For the origin of these results see US20160108091A1.
